One data set deals with T1, MTX-cIBL conjugate.
T1 sequence: QTSVSPSKVI

Data set [1] relates to T2, MTX-cIBR conjugate (methotrexate-cyclo-Leu Pro Arg Gly Gly Ser Val Leu Val Thr).
T2 sequence: LPRGGSVLVT

On to dihydrofolate reductase enzyme (DHFR), for which the “Km relative to MTX” value was “approximately 4 and 15 fold times less than that of MTX, respectively” in the data set with MTX-cIBL conjugate; “approximately 4 and 15 fold times less than that of MTX, respectively” in data set [1].

Values taken from patent US20040037775.
